{"source": "patent US7329517B2", "about": "“Escapin protein, a broadly antimicrobial compound from ink of the sea hare Aplysia californica, and uses thereof” (priority 2004, dated 2008)", "proteins": {"B1": {"name": "Aplysia californica escapin (L-amino acid oxidase), wild type purified from ink, SEQ ID NO:1 (Aplysia californica) (protein)", "chain": "DGVCRNRRQCNKEVCGSSYDVAIVGAGPGGANSAYMLRESGLDIAVFEYSDRVGGRLFTYQLPNTPDVNLEIGGMRFIEGAMHRLWKVISELGLTPKVFKEGFGKEGRQRFYLRGQSLTKKQVKSGDVPYDLSPEEKANQGRLVEYYLEKLTGLQLNGGPLKREVALKLTVPDGRFLYDLTFDEALDLVASPEGKEFARDTHVFTSEVTLDASAISIFDDHLGEDYYGSEIYTLEEGMSSVPQGLLQTFLDAAKSNEFFPNNHLKALRRRTNGQYVLYFEPTTSKDGQTTINYLEPLKVVCAQRVILAMPVYALRQLDWSQLRNDRATQAYRAVRPMPASKVFMTFDQPWWLQNERKSWVTKSDALFSQMYDWQKSEASGDYILIASYADGLKAQYLRELKNQGEDIPGSDPGYNQVTVPLKDAILEHLTEAYGVERDSIPEPVTAASQFWTDYPFGCGWITWRAGYHFDDVISTMRRPSLKDEVYVVGSDYSWGLISSWIEGALETSENVINDYFL", "notes": "a signal peptide cleavage site between 18 and 19 amino acid residues was predicted by SignalIP; from tissue; host or cells: ink (ink gland secretion) of Aplysia californica"}}, "key": {"[1]": {"substrate": "N=C(N)NCCC[C@H](N)C(=O)O", "experiment": "L-amino acid oxidase (LAAO) enzyme-coupled assay of purified escapin", "type": "biochemical, Aplysia californica", "settings": "other: horseradish peroxidase/o-dianisidine coupled assay, 0.1 M Tris-HCl pH 7.6, room temperature, O.D. 436 nm, Lineweaver-Burk plot", "description": "(§1) Animals. Sea hares, Aplysia californica, were collected in California or provided by the NIH National Resource for Aplysia Facility (http://www.rsmas.miami.edu/groups/sea-hares/). They were maintained in aquaria containing recirculating, filtered, and aerated artificial sea water (Instant Ocean™: Aquarium Systems), and fed red alga (Gracilaria ferox). Ink gland processing. The ink glands were surgically removed from sea hares, gently squeezed in a Petri dish with the blunt end of a scalpel handle to release most of the ink secretion from the individual vesicles contained in the gland. The secretion was then pipetted to a microfuge tube and frozen at −80° C. until needed. Opaline gland processing. The opaline glands were surgically removed from sea hares, gently blotted dry on a Kimwipe® to remove seawater (since water causes opaline secretion to polymerize) and transferred to an ultracentrifuge tube. This was centrifuged at 30,000 g for 30 min at 4° C. (Beckman Optima TLX Ultracentrifuge). The pure opaline was then pipetted away from the gland tissue, transferred to a microfuge tube, and frozen at −80° C. until needed. Purification of proteins from purple ink. Proteins were isolated and purified using an ÄKTA 100 Automated FPLC (Amersham Pharmacia Biotech). A preparative grade Hi-Load Superdex 200 16/60 column (Pharmacia) or an in-house-packed Sephacryl 300 HR 26/60 column was used for initial size separation with fractions collected in an automated fraction collector. Fractions identified to have activity by bacterial assay were concentrated using a Biomax 5K NMWL membrane Ultrafree Centrifugal Filter Device (Millipore). Active fractions were further purified on a cation exchange Mono S column, and fractions were collected, assayed, concentrated, and frozen at −80° C. One purified protein of interest was named “escapin” and was bright yellow. Escapin's concentration was determined by Bradford assay using bovine serum albumen (BSA) as a standard. The molecular mass of purified escapin was determined by gel filtration using a Superose-6 10/30 column (Amersham Pharmacia Biotech) eluted with 50 mM potassium phosphate buffer (pH 7.2) containing 150 mM KCl at a flow rate of 0.5 ml/min. The molecular weight markers were BSA (67 kDa), ovalbumen (43 kDa), and chymotrypsinogen A (25 kDa). Protein sequencing. Aplysia californica ink was analyzed for protein content using sodium dodecyl sulfate polyacrylamide gel electrophoresis (SDS-PAGE) on 12% gels. […] This band was blotted from the polyacrylamide gel to a PVDF membrane using CAPS transfer buffer and determined by protein microsequencing and proteomic mass spectrometry (University of Massachusetts Medical School Proteomic Mass Spectrometry Lab: http://www.umassmed.edu/proteomic/leszyk). […]"}, "[2]": {"substrate": "NCCCC[C@H](N)C(=O)O", "experiment": "L-amino acid oxidase (LAAO) enzyme-coupled assay of purified escapin", "type": "biochemical, Aplysia californica", "settings": "other: horseradish peroxidase/o-dianisidine coupled assay, 0.1 M Tris-HCl pH 7.6, room temperature, O.D. 436 nm, Lineweaver-Burk plot", "description": "as §1"}}}
{"protein": "B1", "values": [{"measurement": "Km", "setting": "[1]", "result": 25, "unit": "µM"}, {"measurement": "Vmax", "setting": "[1]", "result": 1.56, "unit": "µM/s"}, {"measurement": "Km", "setting": "[2]", "result": 31, "unit": "µM"}, {"measurement": "Vmax", "setting": "[2]", "result": 1.92, "unit": "µM/s"}]}
